Laboratory results from the supplement of paper PMC9112550, “Optimization of the antimicrobial peptide Bac7 by deep mutational scanning” (BMC Biology, 2022).

Tested on: Escherichia coli TOP10
Experiment: shrunken log2 fold change of peptide-encoding DNA abundance (4.5 h post-induction vs induction); higher = less antimicrobial activity (less host growth inhibition)
Settings: time post-induction: 4.5 h; library: site-saturation at positions 5, 18, 19, 20
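Also: peptides expressed intracellularly from a pBAD plasmid library in pooled LB shake-flask culture, induced with 0.3% L-arabinose, DNA abundance read by NGS, three biological replicates, DESeq2 with apeglm shrinkage.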

Point of comparison: RRIRARPPRLPRPRPRPDITPRP, “shrunken log2 fold change” value 0.491. Against it:
- RRIRARPPRLPRPRPRPAATPRP — higher, 0.914
- RRIRARPPRLPRPRPRPADFPRP — lower, 0.119
- RRIRARPPRLPRPRPRPAEAPRP — lower, 0.161
- RRIRARPPRLPRPRPRPAEMPRP — lower, -0.0298
- RRIRARPPRLPRPRPRPAFDPRP — higher, 1
- RRIRARPPRLPRPRPRPAGCPRP — within 0.2 log units, 0.648
- RRIRARPPRLPRPRPRPAGMPRP — within 0.2 log units, 0.432
- RRIRARPPRLPRPRPRPAHCPRP — within 0.2 log units, 0.433
- RRIRARPPRLPRPRPRPALSPRP — within 0.2 log units, 0.628
- RRIRARPPRLPRPRPRPAMNPRP — lower, 0.121
- RRIRARPPRLPRPRPRPAQVPRP — within 0.2 log units, 0.617
- RRIRARPPRLPRPRPRPASTPRP — within 0.2 log units, 0.318
- RRIRARPPRLPRPRPRPATAPRP — within 0.2 log units, 0.452
- RRIRARPPRLPRPRPRPATCPRP — lower, 0.03
- RRIRARPPRLPRPRPRPAVIPRP — lower, -0.178
- RRIRARPPRLPRPRPRPAWQPRP — within 0.2 log units, 0.626
- RRIRARPPRLPRPRPRPAYDPRP — lower, 0.00165
- RRIRARPPRLPRPRPRPAYEPRP — lower, 0.0749
- RRIRARPPRLPRPRPRPCAHPRP — lower, -0.0288
- RRIRARPPRLPRPRPRPCAIPRP — lower, -0.00341
- RRIRARPPRLPRPRPRPCCTPRP — within 0.2 log units, 0.485
- RRIRARPPRLPRPRPRPCDSPRP — lower, 0.0469
- RRIRARPPRLPRPRPRPCEIPRP — lower, 0.196
- RRIRARPPRLPRPRPRPCFDPRP — lower, 0.191
- RRIRARPPRLPRPRPRPCFEPRP — within 0.2 log units, 0.438
- RRIRARPPRLPRPRPRPCGPPRP — lower, 0.0702
- RRIRARPPRLPRPRPRPCHGPRP — lower, -0.214
- RRIRARPPRLPRPRPRPCHTPRP — lower, 0.0762
- RRIRARPPRLPRPRPRPCIQPRP — lower, 0.151
- RRIRARPPRLPRPRPRPCIWPRP — lower, 0.118
- RRIRARPPRLPRPRPRPCKAPRP — lower, 0.125
- RRIRARPPRLPRPRPRPCKGPRP — lower, -0.0784
- RRIRARPPRLPRPRPRPCKQPRP — lower, -0.0572
- RRIRARPPRLPRPRPRPCMAPRP — lower, 0.104
- RRIRARPPRLPRPRPRPCMHPRP — lower, -0.226
- RRIRARPPRLPRPRPRPCMNPRP — lower, -0.0756
- RRIRARPPRLPRPRPRPCMSPRP — lower, 0.19
- RRIRARPPRLPRPRPRPCNDPRP — lower, -0.0678
- RRIRARPPRLPRPRPRPCNWPRP — lower, -0.0619
- RRIRARPPRLPRPRPRPCQCPRP — lower, 0.0726
- RRIRARPPRLPRPRPRPCQPPRP — lower, -0.0379
- RRIRARPPRLPRPRPRPCRKPRP — lower, -0.232
- RRIRARPPRLPRPRPRPCSGPRP — lower, 0.0771
- RRIRARPPRLPRPRPRPCTKPRP — lower, 0.143
- RRIRARPPRLPRPRPRPCWIPRP — lower, -0.197
- RRIRARPPRLPRPRPRPCWSPRP — lower, -0.142
- RRIRARPPRLPRPRPRPCWWPRP — lower, 0.157
- RRIRARPPRLPRPRPRPDACPRP — higher, 0.955
- RRIRARPPRLPRPRPRPDADPRP — higher, 1.63
- RRIRARPPRLPRPRPRPDANPRP — lower, 0.275
- RRIRARPPRLPRPRPRPDARPRP — within 0.2 log units, 0.355
- RRIRARPPRLPRPRPRPDATPRP — higher, 1.6
- RRIRARPPRLPRPRPRPDCKPRP — lower, -0.129
- RRIRARPPRLPRPRPRPDCLPRP — higher, 0.948
- RRIRARPPRLPRPRPRPDCQPRP — within 0.2 log units, 0.55
- RRIRARPPRLPRPRPRPDCYPRP — lower, 0.283
- RRIRARPPRLPRPRPRPDDDPRP — lower, 0.257
- RRIRARPPRLPRPRPRPDEHPRP — within 0.2 log units, 0.54
- RRIRARPPRLPRPRPRPDEKPRP — within 0.2 log units, 0.447
- RRIRARPPRLPRPRPRPDFAPRP — within 0.2 log units, 0.533
- RRIRARPPRLPRPRPRPDFQPRP — lower, 0.149
- RRIRARPPRLPRPRPRPDFVPRP — lower, 0.205
- RRIRARPPRLPRPRPRPDGWPRP — higher, 1.22
- RRIRARPPRLPRPRPRPDHQPRP — lower, -0.0683
- RRIRARPPRLPRPRPRPDHRPRP — lower, 0.0154
- RRIRARPPRLPRPRPRPDHTPRP — lower, -0.155
- RRIRARPPRLPRPRPRPDHVPRP — lower, 0.0166
- RRIRARPPRLPRPRPRPDKHPRP — lower, -0.0889
- RRIRARPPRLPRPRPRPDNEPRP — within 0.2 log units, 0.301
- RRIRARPPRLPRPRPRPDNIPRP — lower, -0.256
- RRIRARPPRLPRPRPRPDNPPRP — lower, 0.0396
- RRIRARPPRLPRPRPRPDNSPRP — lower, -0.269
- RRIRARPPRLPRPRPRPDPEPRP — higher, 0.939
- RRIRARPPRLPRPRPRPDPMPRP — higher, 1.02
- RRIRARPPRLPRPRPRPDSIPRP — lower, -0.0582
- RRIRARPPRLPRPRPRPDVRPRP — lower, 0.0106
- RRIRARPPRLPRPRPRPDYMPRP — lower, -0.0383
- RRIRARPPRLPRPRPRPEACPRP — higher, 1.24
- RRIRARPPRLPRPRPRPEATPRP — higher, 1.65
- RRIRARPPRLPRPRPRPECYPRP — within 0.2 log units, 0.361
- RRIRARPPRLPRPRPRPEDKPRP — higher, 1.89
- RRIRARPPRLPRPRPRPEEFPRP — lower, 0.00844
- RRIRARPPRLPRPRPRPEFGPRP — higher, 0.874
- RRIRARPPRLPRPRPRPEFSPRP — higher, 1.27
- RRIRARPPRLPRPRPRPEFYPRP — within 0.2 log units, 0.329
- RRIRARPPRLPRPRPRPEHIPRP — lower, -0.185
- RRIRARPPRLPRPRPRPEIKPRP — higher, 1.77
- RRIRARPPRLPRPRPRPEITPRP — higher, 0.784
- RRIRARPPRLPRPRPRPEIYPRP — lower, -0.0195
- RRIRARPPRLPRPRPRPEKQPRP — lower, -0.148
- RRIRARPPRLPRPRPRPELEPRP — higher, 1.88
- RRIRARPPRLPRPRPRPELGPRP — higher, 1.43
- RRIRARPPRLPRPRPRPEMSPRP — lower, 0.116
- RRIRARPPRLPRPRPRPEMTPRP — higher, 1.23
- RRIRARPPRLPRPRPRPENEPRP — higher, 0.868
- RRIRARPPRLPRPRPRPEPFPRP — lower, 0.0204
- RRIRARPPRLPRPRPRPEQFPRP — lower, 0.218
- RRIRARPPRLPRPRPRPERNPRP — higher, 0.848
- RRIRARPPRLPRPRPRPERYPRP — lower, 0.0113
- RRIRARPPRLPRPRPRPETEPRP — higher, 1.39
- RRIRARPPRLPRPRPRPETKPRP — higher, 1.27
- RRIRARPPRLPRPRPRPETNPRP — higher, 1.01
- RRIRARPPRLPRPRPRPEWEPRP — higher, 0.877
- RRIRARPPRLPRPRPRPEYHPRP — lower, 0.0454
- RRIRARPPRLPRPRPRPEYNPRP — lower, 0.102
- RRIRARPPRLPRPRPRPEYWPRP — within 0.2 log units, 0.515
- RRIRARPPRLPRPRPRPFAEPRP — higher, 0.762
- RRIRARPPRLPRPRPRPFCHPRP — lower, -0.083
